Data on two molecules can be found in publication PMC2965227.

Where two headings read alike, the source gives them in different places.

The target of series [1] is T1, YY1 (Yin Yang 1) (human, UniProt P25490 1-414). In words: EMSA. A general note: In EMSA bound probe runs differently from free probe, usually more slowly.
The target of series [2] is T1, YY1 (Yin Yang 1). In words: EMSA. The source holds these as a separate data set.

T1 sequence (P25490 whole entry): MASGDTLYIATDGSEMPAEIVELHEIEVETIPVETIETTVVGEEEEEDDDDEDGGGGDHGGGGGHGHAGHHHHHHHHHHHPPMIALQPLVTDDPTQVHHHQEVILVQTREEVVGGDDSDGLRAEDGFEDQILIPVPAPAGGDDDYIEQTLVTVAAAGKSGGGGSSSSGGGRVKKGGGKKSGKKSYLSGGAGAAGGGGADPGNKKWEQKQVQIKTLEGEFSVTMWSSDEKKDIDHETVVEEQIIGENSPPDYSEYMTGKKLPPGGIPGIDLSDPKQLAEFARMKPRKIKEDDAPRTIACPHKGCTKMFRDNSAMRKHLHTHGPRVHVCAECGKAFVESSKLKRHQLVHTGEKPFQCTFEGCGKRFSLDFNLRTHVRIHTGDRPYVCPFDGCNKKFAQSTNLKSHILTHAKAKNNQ

B1: LEF1 P2 YY1-site mutant probe (ATG to CGT) (dsDNA)
DNA 1: AAAGCATCCAGCGTGAGGCCTCTAC
DNA 2: GTAGAGGCCTCACGCTGGATGCTTT
As for B1, in the series with YY1 (Yin Yang 1) [1], the binding result was “no binding”.

B2: LEF1 P2 wild-type probe (+13 to +37) (dsDNA)
DNA 1: AAAGCATCCAGATGGAGGCCTCTAC
DNA 2: GTAGAGGCCTCCATCTGGATGCTTT
As for B2, the binding result with YY1 (Yin Yang 1) [2] is “binds”.
